In this data set the target is T1, Rrp44exo- (exoribonuclease-dead) (budding yeast, UniProt Q08162 1-1001, D551N).
T1 sequence: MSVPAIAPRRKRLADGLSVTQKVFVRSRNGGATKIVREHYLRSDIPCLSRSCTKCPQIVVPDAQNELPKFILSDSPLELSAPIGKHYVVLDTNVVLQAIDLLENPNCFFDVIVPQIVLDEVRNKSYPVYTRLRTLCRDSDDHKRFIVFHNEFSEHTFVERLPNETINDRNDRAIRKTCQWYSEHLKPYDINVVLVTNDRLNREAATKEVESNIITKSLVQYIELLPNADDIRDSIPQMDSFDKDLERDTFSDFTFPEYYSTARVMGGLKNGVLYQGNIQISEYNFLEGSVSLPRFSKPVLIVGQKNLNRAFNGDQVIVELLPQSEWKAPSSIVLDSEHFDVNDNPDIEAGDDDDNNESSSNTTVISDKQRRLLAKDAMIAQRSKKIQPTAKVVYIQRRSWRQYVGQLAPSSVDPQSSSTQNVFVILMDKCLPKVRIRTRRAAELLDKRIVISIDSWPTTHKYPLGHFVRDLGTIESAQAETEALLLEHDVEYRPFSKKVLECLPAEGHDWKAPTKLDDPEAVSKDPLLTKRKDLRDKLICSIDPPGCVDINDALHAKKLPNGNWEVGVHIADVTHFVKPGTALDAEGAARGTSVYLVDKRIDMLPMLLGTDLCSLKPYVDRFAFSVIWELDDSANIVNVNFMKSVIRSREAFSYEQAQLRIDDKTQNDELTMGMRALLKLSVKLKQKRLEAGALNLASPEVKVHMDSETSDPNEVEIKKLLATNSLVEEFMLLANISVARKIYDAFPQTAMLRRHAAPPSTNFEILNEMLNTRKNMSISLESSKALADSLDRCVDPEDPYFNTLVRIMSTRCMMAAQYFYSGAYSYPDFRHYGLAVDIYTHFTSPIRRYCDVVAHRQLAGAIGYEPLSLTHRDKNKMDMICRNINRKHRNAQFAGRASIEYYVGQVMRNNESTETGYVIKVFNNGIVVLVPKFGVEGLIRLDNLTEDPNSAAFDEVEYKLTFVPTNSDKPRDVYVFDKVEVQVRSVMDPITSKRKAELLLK
The data set is described as follows: fluorescence polarization. For orientation: In fluorescence polarisation assays a small probe gives low polarisation when free and higher when bound to something large.

For AAAAAAAAAAAAAAAAAAAAAAAAAAAAAAAAAAAAAAAAAAAAAAAAA (ssRNA) [polyA RNA 49 nt], the binding result is “binds”.
